Assay results taken from publication PMC3820160.

Target: HA/Flag-tagged Met66 prodomain (human)
Assay: co-IP

Sequence of HA/Flag-tagged Met66 prodomain (human) (P23560 19-247): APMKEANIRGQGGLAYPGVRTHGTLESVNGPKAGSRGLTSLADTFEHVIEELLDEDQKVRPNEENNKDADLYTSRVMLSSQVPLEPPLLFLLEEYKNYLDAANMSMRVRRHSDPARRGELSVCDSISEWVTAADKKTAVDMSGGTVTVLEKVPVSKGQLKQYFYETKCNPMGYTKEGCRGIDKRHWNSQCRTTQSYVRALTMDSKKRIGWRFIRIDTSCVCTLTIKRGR

percent more co-immunoprecipitated than with the Val66 prodomain: 23%
Substance: Myc-tagged SorCS2 (from UniProt Q96PQ0 51-1159) (receptor)
